Source: paper PMC12148503, “Molecular Basis of Interchain Disulfide Bond Formation in BMP-9 and BMP-10” (Journal of molecular biology, 2025)

T1: Pro-(X)-BMP-10 S385G, R353K, O95393
T1 chain: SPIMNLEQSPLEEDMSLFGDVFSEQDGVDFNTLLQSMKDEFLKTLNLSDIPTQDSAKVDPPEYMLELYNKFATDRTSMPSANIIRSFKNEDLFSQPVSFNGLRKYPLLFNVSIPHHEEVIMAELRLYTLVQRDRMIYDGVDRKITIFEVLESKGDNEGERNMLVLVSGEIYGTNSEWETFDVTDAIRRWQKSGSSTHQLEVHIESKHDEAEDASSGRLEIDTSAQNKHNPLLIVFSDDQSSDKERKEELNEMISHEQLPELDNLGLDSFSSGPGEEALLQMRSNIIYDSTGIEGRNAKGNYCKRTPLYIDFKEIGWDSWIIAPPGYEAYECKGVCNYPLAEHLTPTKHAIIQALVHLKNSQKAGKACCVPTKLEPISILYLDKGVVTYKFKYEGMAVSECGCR

T2: Pro-(X)-BMP-10 S385G, O95393
T2 chain: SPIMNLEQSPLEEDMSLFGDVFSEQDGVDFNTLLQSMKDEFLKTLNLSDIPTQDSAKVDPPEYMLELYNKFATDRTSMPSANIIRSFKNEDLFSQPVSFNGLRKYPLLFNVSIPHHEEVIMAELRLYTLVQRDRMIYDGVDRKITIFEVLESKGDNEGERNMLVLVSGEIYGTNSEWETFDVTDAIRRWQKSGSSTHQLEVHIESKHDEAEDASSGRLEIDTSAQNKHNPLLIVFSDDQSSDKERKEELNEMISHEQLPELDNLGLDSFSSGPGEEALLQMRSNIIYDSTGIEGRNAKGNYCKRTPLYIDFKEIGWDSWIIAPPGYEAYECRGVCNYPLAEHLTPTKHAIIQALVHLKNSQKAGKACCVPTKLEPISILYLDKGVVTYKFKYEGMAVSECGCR


Legend:
[1] = biological target: the molecule itself; experiment: non-reducing SDS-PAGE with densitometry; IMAC-purified pro-proteins from expi293 conditioned medium, non-reduced against reduced; bands of disulfide-linked dimer and monomer
[2] = biological target: T1, Pro-(X)-BMP-10 S385G, R353K, O95393; experiment: SDS-PAGE densitometry; conditions: chain shown with the change; IMAC column purified Pro-BMP-10
[3] = biological target: T2, Pro-(X)-BMP-10 S385G, O95393; experiment: SDS-PAGE densitometry; conditions: chain shown with the change; IMAC column purified Pro-BMP-10
[4] = biological target: the molecule itself; experiment: crystal structure; BMP-9 disulfide-linked dimers (wild type and mutants) at neutral pH; 1 M NaCl, glycerol, 0.1 M HEPES pH 7.4; multi-crystal data split into fractions

Binder | binding result [1] | binding result [4] | also measured
Pro-(X)-BMP-9 G389S, K357R (natural protein, human, UniProt Q9UK05 23-429, looked up, Human proBMP9 residues 23-429; mutant based on Pro-(X)-BMP-9; also called G389S, K357R BMP-9; BMP-9 double mutant; source: expi293 (suspension HEK293), secreted; purified from conditioned medium by IMAC; not shown: 8xHis, N-terminal, kept) KPLQSWGRGSAGGNAHSPLGVPGGGLPEHTFNLKMFLENVKVDFLRSLNLSGVPSQDKTRVEPPQYMIDLYNRYTSDKSTTPASNIVRSFSMEDAISITATEDFPFQKHILLFNISIPRHEQITRAELRLYVSCQNHVDPSHDLKGSVVIYDVLDGTDAWDSATETKTFLVSQDIQDEGWETLEVSSAVKRWVRSDSTKSKNKLEVTVESHRKGCDTLDISVPPGSRNLPFFVVFSNDHSSGTKETRLELREMISHEQESVLKKLSKDGSTEAGESSHEEDTDGHVAAGSTLAIEGRSSGAGSHCQKTSLRVNFEDIGWDSWIIAPKEYEAYECRGGCFFPLADDVTPTKHAIVQTLVHLKFPTKVSKACCVPTKLSPISVLYKDDMGVPTLKYHYEGMSVAECGCR | binds |  | 
Pro-(X)-BMP-10, O95393 S385G; R353K (protein) SPIMNLEQSPLEEDMSLFGDVFSEQDGVDFNTLLQSMKDEFLKTLNLSDIPTQDSAKVDPPEYMLELYNKFATDRTSMPSANIIRSFKNEDLFSQPVSFNGLRKYPLLFNVSIPHHEEVIMAELRLYTLVQRDRMIYDGVDRKITIFEVLESKGDNEGERNMLVLVSGEIYGTNSEWETFDVTDAIRRWQKSGSSTHQLEVHIESKHDEAEDASSGRLEIDTSAQNKHNPLLIVFSDDQSSDKERKEELNEMISHEQLPELDNLGLDSFSSGPGEEALLQMRSNIIYDSTGIEGRNAKGNYCKRTPLYIDFKEIGWDSWIIAPPGYEAYECKGVCNYPLAEHLTPTKHAIIQALVHLKNSQKAGKACCVPTKLEPISILYLDKGVVTYKFKYEGMAVSECGCR |  |  | other: disulfide-linked dimer over monomer ratio [2]: 0.41
Pro-(fr)-BMP-10 (natural protein, human, UniProt O95393 22-424, looked up, Human proBMP10 residues 22-424 with the natural furin site; Partially processed by furin: the sample holds unprocessed pro-protein, prodomain and growth factor (12 and 24 kDa); also called Pro-BMP-10 with unmodified furin processing site; wild-type BMP-10; source: expi293 (suspension HEK293), secreted; purified from conditioned medium by IMAC; not shown: 8xHis, N-terminal, kept) SPIMNLEQSPLEEDMSLFGDVFSEQDGVDFNTLLQSMKDEFLKTLNLSDIPTQDSAKVDPPEYMLELYNKFATDRTSMPSANIIRSFKNEDLFSQPVSFNGLRKYPLLFNVSIPHHEEVIMAELRLYTLVQRDRMIYDGVDRKITIFEVLESKGDNEGERNMLVLVSGEIYGTNSEWETFDVTDAIRRWQKSGSSTHQLEVHIESKHDEAEDASSGRLEIDTSAQNKHNPLLIVFSDDQSSDKERKEELNEMISHEQLPELDNLGLDSFSSGPGEEALLQMRSNIIYDSTARIRRNAKGNYCKRTPLYIDFKEIGWDSWIIAPPGYEAYECRGVCNYPLAEHLTPTKHAIIQALVHLKNSQKASKACCVPTKLEPISILYLDKGVVTYKFKYEGMAVSECGCR | binds |  | 
Pro-(X)-BMP-10, O95393 S385G (protein) SPIMNLEQSPLEEDMSLFGDVFSEQDGVDFNTLLQSMKDEFLKTLNLSDIPTQDSAKVDPPEYMLELYNKFATDRTSMPSANIIRSFKNEDLFSQPVSFNGLRKYPLLFNVSIPHHEEVIMAELRLYTLVQRDRMIYDGVDRKITIFEVLESKGDNEGERNMLVLVSGEIYGTNSEWETFDVTDAIRRWQKSGSSTHQLEVHIESKHDEAEDASSGRLEIDTSAQNKHNPLLIVFSDDQSSDKERKEELNEMISHEQLPELDNLGLDSFSSGPGEEALLQMRSNIIYDSTGIEGRNAKGNYCKRTPLYIDFKEIGWDSWIIAPPGYEAYECRGVCNYPLAEHLTPTKHAIIQALVHLKNSQKAGKACCVPTKLEPISILYLDKGVVTYKFKYEGMAVSECGCR |  |  | other: disulfide-linked dimer over monomer ratio [3]: 0.42
BMP-9 G389S, K357R disulfide-linked dimer (ligand, human, UniProt Q9UK05 320-429, looked up, interchain disulfide Cys-392 to Cys-392', Human BMP-9 growth factor released by factor Xa from the G389S, K357R mutant of Pro-(X)-BMP-9 (proBMP9 residues 23-429, A321S, RRKR replaced by IEGR); also called BMP-9 double-mutant; BMP-9 G389S K357R Dimer; source: expi293 (suspension HEK293), secreted as Pro-(X)-BMP-9 mutant; IMAC, factor Xa digestion, C18 reverse phase) SSGAGSHCQKTSLRVNFEDIGWDSWIIAPKEYEAYECRGGCFFPLADDVTPTKHAIVQTLVHLKFPTKVSKACCVPTKLSPISVLYKDDMGVPTLKYHYEGMSVAECGCR |  | binds | 
BMP-9 G389S disulfide-linked dimer (ligand, human, UniProt Q9UK05 320-429, looked up, interchain disulfide Cys-392 to Cys-392', Human BMP-9 growth factor released by factor Xa from the G389S mutant of Pro-(X)-BMP-9 (proBMP9 residues 23-429, A321S, RRKR replaced by IEGR); also called BMP-9 G389S Dimer; source: expi293 (suspension HEK293), secreted as Pro-(X)-BMP-9 mutant; IMAC, factor Xa digestion, C18 reverse phase) SSGAGSHCQKTSLRVNFEDIGWDSWIIAPKEYEAYECKGGCFFPLADDVTPTKHAIVQTLVHLKFPTKVSKACCVPTKLSPISVLYKDDMGVPTLKYHYEGMSVAECGCR |  | binds | 
